The results in this text go back to US20070129307A1 (UNIVERSITY OF BRITISH COLUMBIA, published 2007).

Assay [1] has as its target T1, murine MHC class I molecule, H-2Kd (mouse, UniProt P01887 21-119; P01902 22-368, limits assumed).
T1 construct: whole, on cells; MHC class I molecule on the surface of RMAS-Kd cells
T1 sequence (MHC heavy, looked up): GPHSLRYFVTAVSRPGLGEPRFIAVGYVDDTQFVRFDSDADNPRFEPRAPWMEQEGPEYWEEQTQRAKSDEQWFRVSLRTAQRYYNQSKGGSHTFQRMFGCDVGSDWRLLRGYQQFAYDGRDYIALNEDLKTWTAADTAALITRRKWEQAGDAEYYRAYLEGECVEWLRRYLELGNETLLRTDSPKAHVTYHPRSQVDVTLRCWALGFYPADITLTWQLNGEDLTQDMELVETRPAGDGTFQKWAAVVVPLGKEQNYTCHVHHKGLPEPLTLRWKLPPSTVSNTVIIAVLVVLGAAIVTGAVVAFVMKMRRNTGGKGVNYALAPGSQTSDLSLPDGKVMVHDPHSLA
T1 sequence (b2m, looked up): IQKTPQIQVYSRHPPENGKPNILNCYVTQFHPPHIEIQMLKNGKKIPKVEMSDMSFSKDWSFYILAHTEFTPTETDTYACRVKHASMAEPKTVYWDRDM
Put plainly: MHC class I stabilization assay on TAP-deficient RMAS-Kd cells, anti-H-2Kd-FITC, flow cytometry (background without peptide 6.07%). (In flow cytometry, cells or beads pass a laser one at a time.)

Assay [2] addresses T2, human MHC class I molecule HLA-A*0201 (human).
T2 construct: MHC class I molecule on the surface of T2 cells; also called HLA-A2; HLA-A201
Put plainly: peptide/HLA-A2 complex stability on T2 cells after peptide removal and emetine, 37 C, anti-HLA-A2 flow cytometry, normalized to CMV/HLA-A2.

Assay [3] addresses T2, human MHC class I molecule HLA-A*0201. Briefly: HLA-A2 stabilization on T2 cells loaded with 50 ug/ml peptide, anti-HLA-A2 (BB7.2) flow cytometry, MFI relative to CMV/A2.

Regarding KLPAVLLIL [murine IAPP precursor peptide mTV1], the “% of RMAS-Kd cells staining positive for surface H-2Kd” value (shortened to “% of RMAS-Kd cells staining positive”) in assay [1] came to 64.2%.

B1: TV2 (peptide)
peptide: KYPAVLLIL
notes: Modified version of TV1 with leucine to tyrosine at position 2; also called MTV2
Consider B1, for which the “% of RMAS-Kd cells staining positive” value in assay [1] came out at 58.5%.

In the case of RLLCALTSL [IGRP293], the “% of peptide/HLA-A2 complex dissociated in 4 hours” value in assay [2] was ~20%.

In the case of ALWMRLLPL [Insulin2], the “% of peptide/HLA-A2 complex dissociated in 4 hours” value in assay [2] was ~20%. For the same molecule, in assay [3], the “relative HLA-A2 surface expression (% of CMV/A2 peptide binding)” value was > 80%.

As to SLAAGVKLL [IA-2(482)], the “relative HLA-A2 surface expression (% of CMV/A2 peptide binding)” value in assay [3] is > 80%.

FLFAVGFYL [IGRP215]: in assay [2], the “% of peptide/HLA-A2 complex dissociated in 4 hours” value is < 5%.

B2: TV3 (peptide)
peptide: RLLPLLALL
notes: Peptide derived from the mouse insulin protein
Regarding B2, the “% of RMAS-Kd cells staining positive” value in assay [1] was found to be 70.1%.

In the case of GMAELMAGL [Phogrin331], the “% of peptide/HLA-A2 complex dissociated in 4 hours” value in assay [2] is ~20%. Moreover, in assay [3], the “relative HLA-A2 surface expression (% of CMV/A2 peptide binding)” value was > 80%.

B3: TUM (peptide)
peptide: KYQAVTTTL
notes: also called negative control peptide TUM
B3: the “% of RMAS-Kd cells staining positive” value in assay [1] was found to be 66.5%.

Regarding KLQVFLIVL (also called HTV1; HTV-1) [IAPP5], in assay [2], the “% of peptide/HLA-A2 complex dissociated in 4 hours” value is < 5%.

Regarding LLPPLLEHL [IA-2(180)], the “relative HLA-A2 surface expression (% of CMV/A2 peptide binding)” value in assay [3] was > 80%.

Take FLIVLSVAL [IAPP9]: in assay [2], the “% of peptide/HLA-A2 complex dissociated in 4 hours” value is < 5%.

As for FLWSVFMLI [IGRP152], in assay [2], the “% of peptide/HLA-A2 complex dissociated in 4 hours” value was < 5%.

Consider SLSPLQAEL [IA-2(172)], for which, in assay [2], the “% of peptide/HLA-A2 complex dissociated in 4 hours” value was < 5%. The “relative HLA-A2 surface expression (% of CMV/A2 peptide binding)” value in assay [3] was > 80%.
